Holding throughout (assay): cell_activity; E. coli plasmid assay, median
What all share (settings): chain copies: 2

One series concerns the target Cre R292Y + Cre Y324M (UniProt P06956;P06956 SEQ:1-343,SEQ:1-343, R292Y (first monomer); Y324M (second monomer)). As to the method: (§1) To generate further obligate recombinases, additional single mutations in the catalytic region (i.e. at amino acid positions 129-136, 163-181, 199-211, 289-301, 310-316 and 321-324 of SEQ ID NO: 1, cf. FIG. 17A, dark regions) of the recombination synapse of the Cre recombinase (Guo et al. 1997, Lee et al. 2002, Gibb et al. 2010, Meinke et al. 2016) were introduced as outlined in Table 6 below. […] Recombination activity of the recombinases on loxP was measured by a plasmid-based assay as previously described (6, 9, 10). in the experiments, the recombined pEVO is smaller in size compared to the non-recombined pEVO. […] These two different fragments can either be distinguished by gel electrophoresis or by sequencing. The recombination efficiencies (indicated as dimer and monomer acitivty, respectively) were calculated based on the ratio of recombined and non-recombined substrate using the following formula: Recombination activity (%)=100×(recombined substrate/(recombined+non-recombined substrates)).

In the next series the target is Cre R292F + Cre Q311R (UniProt P06956;P06956 SEQ:1-343,SEQ:1-343, R292F (first monomer)). On the procedure: as §1
The next series has as its target Cre Q311R + Cre Y324F (UniProt P06956;P06956 SEQ:1-343,SEQ:1-343, Y324F (second monomer)). On the procedure:
as §1

A further series addresses Cre R173G + Cre K201Y (UniProt P06956;P06956 SEQ:1-343,SEQ:1-343, R173G (first monomer); K201Y (second monomer)). As to the method: as §1
The target in the next series is Cre K201F + Cre Y324C (UniProt P06956;P06956 SEQ:1-343,SEQ:1-343, K201F (first monomer); Y324C (second monomer)). On the procedure: as §1
The next series addresses Cre E129R + Cre K201R (UniProt P06956;P06956 SEQ:1-343,SEQ:1-343, E129R (first monomer)). As to the method:
as §1

Another series addresses Cre E176I + Cre Q311R (UniProt P06956;P06956 SEQ:1-343,SEQ:1-343, E176I (first monomer)). On the procedure: as §1
The next series addresses Cre W315K + Cre Y324K (UniProt P06956;P06956 SEQ:1-343,SEQ:1-343, W315K (first monomer); Y324K (second monomer)). As to the method: as §1
A further series concerns the target Cre Q133H + Cre Q311R (UniProt P06956;P06956 SEQ:1-343,SEQ:1-343, Q133H (first monomer)). As to the method:
as §1

The next series concerns the target Cre H289W + Cre W315C (UniProt P06956;P06956 SEQ:1-343,SEQ:1-343, H289W (first monomer); W315C (second monomer)). As to the method: as §1
In another series the target is Cre Q311R + Cre Y324I (UniProt P06956;P06956 SEQ:1-343,SEQ:1-343, Y324I (second monomer)). As to the method:
as §1

The next series concerns the target Cre H289D + Cre Q311R (UniProt P06956;P06956 SEQ:1-343,SEQ:1-343, H289D (first monomer)). As to the method:
as §1

Another series concerns the target Cre Q311R + Cre W315M (UniProt P06956;P06956 SEQ:1-343,SEQ:1-343, W315M (second monomer)). As to the method: as §1
The target in the next series is Cre K201A + Cre Q311R (UniProt P06956;P06956 SEQ:1-343,SEQ:1-343, K201A (first monomer)). As to the method:
as §1

The target in another series is Cre E176W + Cre Q311R (UniProt P06956;P06956 SEQ:1-343,SEQ:1-343, E176W (first monomer)). As to the method:
as §1

A further series has as its target Cre W315Q + Cre Y324V (UniProt P06956;P06956 SEQ:1-343,SEQ:1-343, W315Q (first monomer); Y324V (second monomer)). As to the method: as §1
The target of another series is Cre R173A + Cre Q311R (UniProt P06956;P06956 SEQ:1-343,SEQ:1-343, R173A (first monomer)). As to the method: as §1
Another series addresses Cre E129R + Cre Q311R (UniProt P06956;P06956 SEQ:1-343,SEQ:1-343, E129R (first monomer)). As to the method: as §1
In the next series the target is Cre K201M + Cre K201R (UniProt P06956;P06956 SEQ:1-343,SEQ:1-343, K201M (first monomer)). As to the method:
as §1

A further series deals with Cre Q311R + Cre W315S (UniProt P06956;P06956 SEQ:1-343,SEQ:1-343, W315S (second monomer)). As to the method:
as §1

The target in another series is Cre R173S + Cre Q311R (UniProt P06956;P06956 SEQ:1-343,SEQ:1-343, R173S (first monomer)). On the procedure:
as §1

The next series addresses Cre R173F + Cre E176V (UniProt P06956;P06956 SEQ:1-343,SEQ:1-343, R173F (first monomer); E176V (second monomer)). On the procedure: as §1
Another series concerns the target Cre R292G + Cre Q311R (UniProt P06956;P06956 SEQ:1-343,SEQ:1-343, R292G (first monomer)). On the procedure:
as §1

B1: loxP (dsDNA)
DNA 1: ATAACTTCGTATAATGTATGCTATACGAAGTTAT
DNA 2: ATAACTTCGTATAGCATACATTATACGAAGTTAT
Consider B1, for which the activity is 90 % recombined in the series with Cre R292Y + Cre Y324M; 42 % recombined in the series with Cre R292F + Cre Q311R; 95 % recombined with Cre Q311R + Cre Y324F; 95 % recombined with Cre R173G + Cre K201Y; 98 % recombined with Cre K201F + Cre Y324C; 26 % recombined in the series with Cre E129R + Cre K201R. In addition, the activity came out at 36 % recombined with Cre E176I + Cre Q311R; 99 % recombined with Cre W315K + Cre Y324K; 96 % recombined with Cre Q133H + Cre Q311R; 87 % recombined with Cre H289W + Cre W315C; 96 % recombined in the series with Cre Q311R + Cre Y324I; 97 % recombined with Cre H289D + Cre Q311R. Moreover, the activity with Cre Q311R + Cre W315M is 95 % recombined; with Cre K201A + Cre Q311R, 95 % recombined; with Cre E176W + Cre Q311R it was 90 % recombined; with Cre W315Q + Cre Y324V, 97 % recombined; with Cre R173A + Cre Q311R it was 93 % recombined; with Cre E129R + Cre Q311R it was 93 % recombined. Moreover, the activity is 76 % recombined with Cre K201M + Cre K201R; 37 % recombined with Cre Q311R + Cre W315S; 97 % recombined with Cre R173S + Cre Q311R; 82 % recombined with Cre R173F + Cre E176V; 97 % recombined with Cre R292G + Cre Q311R.

(Values after US20230183713A1, “SITE-SPECIFIC RECOMBINASES FOR EFFICIENT AND SPECIFIC GENOME EDITING” (TECHNISCHE UNIVERSITÄt DRESDEN, published 2023).)
